± gives the standard deviation of the averaged measurements.
Test: total protein half-life in vivo (active degradation + dilution); higher = more stable protein
[1] = E. coli NCM3722 delta-clpP delta-lon delta-hslV, growth: N-lim chemostat, doubling time 6 h
[2] = E. coli NCM3722 delta-clpP, growth: N-lim chemostat, doubling time 6 h
[3] = E. coli NCM3722 delta-hslV, growth: N-lim chemostat, doubling time 6 h
[4] = E. coli NCM3722 delta-lon, growth: N-lim chemostat, doubling time 6 h
[5] = E. coli NCM3722 delta-smpB, growth: N-lim chemostat, doubling time 6 h
[6] = wild type E. coli NCM3722, growth: C-lim chemostat, doubling time 3 h
[7] = wild type E. coli NCM3722, growth: C-lim chemostat, doubling time 6 h
[8] = wild type E. coli NCM3722, growth: C-lim chemostat, doubling time 12 h
[9] = wild type E. coli NCM3722, growth: N-lim chemostat, doubling time 6 h
[10] = wild type E. coli NCM3722, growth: N-lim chemostat, doubling time 12 h
[11] = wild type E. coli NCM3722, growth: P-lim chemostat, doubling time 6 h
[12] = wild type E. coli NCM3722, growth: P-lim chemostat, doubling time 12 h

| Sequence | total protein half-life in vivo [1] | total protein half-life in vivo [2] | total protein half-life in vivo [3] | total protein half-life in vivo [4] | total protein half-life in vivo [5] | total protein half-life in vivo [6] | total protein half-life in vivo [7] | total protein half-life in vivo [8] | total protein half-life in vivo [9] | total protein half-life in vivo [10] | total protein half-life in vivo [11] | total protein half-life in vivo [12] |
| --- | --- | --- | --- | --- | --- | --- | --- | --- | --- | --- | --- | --- |
| MSIEIANIKKSFGRTQVLNDISLDIPSGQMVALLGPSGSGKTTLLRIIAGLEHQTSGHIRFHGTDVSRLHARDRKVGFVFQHYALFRHMTVFDNIAFGLTVLPRRERPNAAAIKAKVTKLLEMVQLAHLADRYPAQLSGGQKQRVALARALAVEPQILLLDEPFGALDAQVRKELRRWLRQLHEELKFTSVFVTHDQEEATEVADRVVVMSQGNIEQADAPDQVWREPATRFVLEFMGEVNRLQGTIRGGQFHVGAHRWPLGYTPAYQGPVDLFLRPWEVDISRRTSLDSPLPVQVLEASPKGHYTQLVVQPLGWYNEPLTVVMHGDDAPQRGERLFVGLQHARLYNGDERIETRDEELALAQSA | 6.63 ± 1.7 h | 5.04 ± 1.5 h | 2.09 ± 0.0062 h | 2.01 ± 0.088 h | 2.01 ± 0.032 h | 2.4 ± 1.4 h | 3.58 ± 2.8 h | 2.68 ± 0.037 h | 2.08 ± 0.11 h | 2.85 ± 0.09 h | 2.65 ± 0.42 h | 4.77 ± 0.37 h |
| MSIKTSNTDFKTRIRQQIEDPIMRKAVANAQQRIGANRQKMVDELGHWEEWRDRAAQIRDHVLSNLDAYLYQLSEKVTQNGGHVYFARTKEDATRYILQVAQRKNARKVVKSKSMVTEEIGVNHVLQDAGIQVIETDLGEYILQLDQDPPSHVVVPAIHKDRHQIRRVLHERLGYEGPETPEAMTLFIRQKIREDFLSAEIGITGCNFAVAETGSVCLVTNEGNARMCTTLPKTHIAVMGMERIAPTFAEVDVLITMLARSAVGARLTGYNTWLTGPREAGHVDGPEEFHLVIVDNGRSEVLASEFRDVLRCIRCGACMNTCPAYRHIGGHGYGSIYPGPIGAVISPLLGGYKDFKDLPYACSLCTACDNVCPVRIPLSKLILRHRRVMAEKGITAKAEQRAIKMFAYANSHPGLWKVGMMAGAHAASWFINGGKTPLKFGAISDWMEARDLPEADGESFRSWFKKHQAQEKKNG | 5.21 ± 0.71 h | – | 3.96 ± 3.1 h | – | 1.76 ± 0.072 h | 1.83 ± 0.084 h | 3.47 ± 0.48 h | 4.06 ± 0.2 h | 1.72 h | – | 1.89 h | 3.14 ± 0.62 h |
| MSILYEERLDGALPDVDRTSVLMALREHVPGLEILHTDEEIIPYECDGLSAYRTRPLLVVLPKQMEQVTAILAVCHRLRVPVVTRGAGTGLSGGALPLEKGVLLVMARFKEILDINPVGRRARVQPGVRNLAISQAVAPHNLYYAPDPSSQIACSIGGNVAENAGGVHCLKYGLTVHNLLKIEVQTLDGEALTLGSDALDSPGFDLLALFTGSEGMLGVTTEVTVKLLPKPPVARVLLASFDSVEKAGLAVGDIIANGIIPGGLEMMDNLSIRAAEDFIHAGYPVDAEAILLCELDGVESDVQEDCERVNDILLKAGATDVRLAQDEAERVRFWAGRKNAFPAVGRISPDYYCMDGTIPRRALPGVLEGIARLSQQYDLRVANVFHAGDGNMHPLILFDANEPGEFARAEELGGKILELCVEVGGSISGEHGIGREKINQMCAQFNSDEITTFHAVKAAFDPDGLLNPGKNIPTLHRCAEFGAMHVHHGHLPFPELERF [P0AEP9] | – | – | – | – | – | 1.69 ± 0.022 h | 3.62 ± 0.18 h | 5.4 ± 0.53 h | – | – | 2.38 ± 0.24 h | 5.7 ± 3.1 h |
| MSIQNEMPGYNEMNQYLNQQGTGLTPAEMHGLISGMICGGNDDSSWLPLLHDLTNEGMAFGHELAQALRKMHSATSDALQDDGFLFQLYLPDGDDVSVFDRADALAGWVNHFLLGLGVTQPKLDKVTGETGEAIDDLRNIAQLGYDEDEDQEELEMSLEEIIEYVRVAALLCHDTFTHPQPTAPEVQKPTLH [P0A8C4] | > 8 h | 4.56 ± 0.28 h | 3.63 ± 0.19 h | 3.96 ± 0.8 h | 3.76 ± 0.7 h | 2.648 ± 0.026 h | 5.18 ± 0.36 h | 8.97 ± 0.18 h | 3.86 ± 0.19 h | 5.64 ± 1 h | 5.02 ± 1.2 h | 9.3 h |
| MSIRFARKADCAAIAEIYNHAVLYTAAIWNDQTVDADNRIAWFEARTLAGYPVLVSEENGVVTGYASFGDWRSFDGFRHTVEHSVYVHPDHQGKGLGRKLLSRLIDEARDCGKHVMVAGIESQNQASLHLHQSLGFVVTAQMPQVGTKFGRWLDLTFMQLQLDERTEPDAIG | 5.23 ± 0.39 h | 4.6 ± 0.25 h | 4.9 ± 0.08 h | 5.17 ± 0.18 h | 4.66 ± 0.33 h | 2.77 ± 0.072 h | 5.77 ± 0.34 h | 10.14 ± 0.042 h | 4.93 ± 0.44 h | 9.49 h | 5.912 ± 0.025 h | 12 ± 0.29 h |
| MSITLSDSAAARVNTFLANRGKGFGLRLGVRTSGCSGMAYVLEFVDEPTPEDIVFEDKGVKVVVDGKSLQFLDGTQLDFVKEGLNEGFKFTNPNVKDECGCGESFHV [P0AAC8] | 3.72 ± 0.52 h | 2.47 ± 1.5 h | 0.964 ± 0.11 h | 2.06 ± 0.1 h | 0.889 ± 0.077 h | 1.2 ± 0.086 h | 1.62 ± 0.07 h | 2.08 ± 0.36 h | 1.14 ± 0.11 h | 1.26 ± 0.022 h | 1.36 ± 0.36 h | 2.42 ± 0.75 h |
